Measurements reported in patent publication US20170334979A1 (published 2017).

B1: cynomolgus monkey serum albumin (other)
chain: DTHKSEVAHRFKDLGEEHFKGLVLVAFSQYLQQCPFEEHVKLVNEVTEFAKTCVADESAENCDKSLHTLFGDKLCTVATLRETYGEMADCCAKQEPERNECFLQHKDDNPNLPPLVRPEVDVMCTAFHDNEATFLKKYLYEVARRHPYFYAPELLFFAARYKAAFAECCQAADKAACLLPKLDELRDEGKASSAKQRLKCASLQKFGDRAFKAWAVARLSQKFPKAEFAEVSKLVTDLTKVHTECCHGDLLECADDRADLAKYMCENQDSISSKLKECCDKPLLEKSHCLAEVENDEMPADLPSLAADYVESKDVCKNYAEAKDVFLGMFLYEYARRHPDYSVMLLLRLAKAYEATLEKCCAAADPHECYAKVFDEFQPLVEEPQNLVKQNCELFEQLGEYKFQNALLVRYTKKVPQVSTPTLVEVSRNLGKVGAKCCKLPEAKRMPCAEDYLSVVLNRLCVLHEKTPVSEKVTKCCTESLVNRRPCFSALELDEAYVPKAFNAETFTFHADMCTLSEKEKQVKKQTALVELVKHKPKATKEQLKGVMDNFAAFVEKCCKADDKEACFAEEGPKFVAASQAALA

Key:
Assay in all cases: purified sdAb binding
mouse serum albumin = mouse serum albumin (mouse, UniProt P07724 25-608)
human serum albumin = human serum albumin (human, UniProt P02768 25-609)
[1] = target: B1
10GE = target: 10GE

Sequence of mouse serum albumin (P07724 25-608): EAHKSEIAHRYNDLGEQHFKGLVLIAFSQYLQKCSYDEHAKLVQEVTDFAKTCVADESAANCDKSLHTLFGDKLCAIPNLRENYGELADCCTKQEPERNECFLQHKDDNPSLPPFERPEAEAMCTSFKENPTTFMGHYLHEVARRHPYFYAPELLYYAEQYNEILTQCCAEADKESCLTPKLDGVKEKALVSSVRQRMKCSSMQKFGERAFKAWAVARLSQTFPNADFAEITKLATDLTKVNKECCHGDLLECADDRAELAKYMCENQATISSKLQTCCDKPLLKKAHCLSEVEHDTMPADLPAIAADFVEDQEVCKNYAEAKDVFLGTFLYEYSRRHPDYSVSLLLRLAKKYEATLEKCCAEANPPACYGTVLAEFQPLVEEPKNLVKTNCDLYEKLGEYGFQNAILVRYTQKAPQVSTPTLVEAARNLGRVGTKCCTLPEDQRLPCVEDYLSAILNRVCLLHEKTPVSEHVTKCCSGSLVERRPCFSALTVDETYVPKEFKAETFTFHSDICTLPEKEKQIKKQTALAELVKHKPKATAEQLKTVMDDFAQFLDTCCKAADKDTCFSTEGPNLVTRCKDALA

| Kd (mouse serum albumin) [nM] | Kd (human serum albumin) [nM] | Kd [1] [nM] | Kd (10GE) [nM] | Binder |
| --- | --- | --- | --- | --- |
| 12.3 | 1.9 | 1.7 |  | 7A (protein) EVQLVESGGGLVQPGNSLRLSCAASGFTFSKFGMSWVRQAPGKGLEWVSSISGSGADTLYADSLKGRFTISRDNAKTTLYLQMNSLRPEDTAVYYCTIGGSLSKSSQGTLVTVSS |
|  |  |  | 1.6 | B1 |
